Data on 28 molecules can be found in patent US20250236673A1 (Ablynx, published 2025).

As usually defined, the Kd is the concentration at which binding is half-saturated. Broadly, the koff is a measure of how fast the partners let go of each other. In general, kon refers to a measure of how fast the partners come together.

Numbering of substitutions follows the chain as printed. Names may count otherwise. “And” between values parts separate entries of the source, which are not always exact repeats. Equal values may be shown once.

First the molecules themselves.
B1: T039400054 (VHH)
VHH: EVQLVESGGGVVQPGGSLRLSCAASGLTFSTYTMGWFRQAPGREREFVAAIIWSGSNTYYADSVRGRFTISRDNARNTVYLQMNSLRPEDTALYYCAAQHFGPIGLTTRGYHYWGQGTLVTVSS
notes: Single lysine at the C-terminus; also called HIS6-ENLYFQS-5GS-A0315007E07(K43R, K64R, K75R,)-K
B2: T039400049 (VHH)
VHH: B1 VHH with Q116K
notes: also called HIS6-ENLYFQS-5GS-A0315007E07(K43R, K64R, K75R, Q105K)
B3: T039400053 (VHH)
VHH: B1 VHH with R43K
notes: Single lysine at 43; 24 used; also called HIS6-ENLYFQS-5GS-A0315007E07(K64R, K75R,)
B4: T039400048 (VHH)
VHH: B1 VHH with R45K
notes: Single lysine at 45; also called HIS6-ENLYFQS-5GS-A0315007E07(K43R, R45K, K64R, K75R)
B5: T039400047 (VHH)
VHH: B1 VHH with R65K
notes: Single lysine at 64; also called HIS6-ENLYFQS-5GS-A0315007E07(K43R, K75R)
B6: T039400052 (VHH)
VHH: B1 VHH with N74K
notes: Single lysine at 73; also called HIS6-ENLYFQS-5GS-A0315007E07K43R, K64R, N73K, K75R
B7: T039400050 (VHH)
VHH: B1 VHH
notes: No lysine; also called HIS6-ENLYFQS-5GS-A0315007E07(K43R, K64R, K75R)
B8: T028501789 (VHH)
VHH: B1 VHH with R43K, R65K, R76K
notes: also called A031500384; A0315007E07(L11V, S76N, N82bS, E83R, V89L, H91Y, N101H)
B9: T039400046 (VHH)
VHH: EVQLVESGGGVVQPGGSLRLSCAASGFTFRSFGMSWVRQAPGRGPEWVSSISGSGSDTLYADSVRGRFTISRDNSRNTLYLQMNSLRPEDTALYYCTIGGSLSRSSQGTLVTVSS
notes: Single lysine at the C-terminus; also called HIS6-ENLYFQS-5GS-HSA006A06(K43R, K64R, K75R, K83R)-K
B10: T039400043 (VHH)
VHH: B9 VHH with R43K
notes: Single lysine at 43; also called HIS6-ENLYFQS-5GS-HSA006A06(K64R, K75R, K83R)
B11: T039400042 (VHH)
VHH: B9 VHH with N74K
notes: Single lysine at 73; also called HIS6-ENLYFQS-5GS-HSA006A06(K43R, K64R, N73K, K75R, K83R)
B12: T039400040 (VHH)
VHH: B9 VHH
notes: No lysine; also called HIS6-ENLYFQS-5GS-HSA006A06(K43R, K64R, K75R, K83R)
B13: T039400045 (VHH)
VHH: B9 VHH with P45K
notes: Single lysine at 45; also called HIS6-ENLYFQS-5GS-HSA006A06(K43R, P45K,K64R, K75R, K83R)
B14: T039400041 (VHH)
VHH: B9 VHH with R65K
notes: Single lysine at 64; also called HIS6-ENLYFQS-5GS-HSA006A06(K43R, K75R, K83R)
B15: T039400039 (VHH)
VHH: B9 VHH with R76K
notes: Single lysine at 75; also called HIS6-ENLYFQS-5GS-HSA006A06(K43R, K64R, K83R)
B16: T039400044 (VHH)
VHH: B9 VHH with Q107K
notes: also called HIS6-ENLYFQS-5GS-HSA006A06(K43R, K64R, K75R, K83R, Q105K)
B17: T028501805 (VHH)
VHH: B9 VHH with R43K, R65K, R76K
notes: also called ALB00622; HSA006A06(K83R)
B18: T031200256 (VHH)
VHH: DVQLVESGGGVVQPGGSLRLSCTASGFTFSTADMGWFRQAPGKGREFVARISGIDGTTYYDEPVKGRFTISRDKSKNTVYLQMNSLKPEDTALYYCRSPRYADQWSAYDYWGQGTLVTVSS
B19: T031200260 (VHH)
VHH: B18 VHH with R19K, Q113K
B20: T031200258 (VHH)
VHH: B18 VHH with R19K, K74N, Q113K
B21: T031200262 (VHH)
VHH: B18 VHH with R19K, R45K, Q113K
B22: T031200259 (VHH)
VHH: B18 VHH with R19K, R72K, K74N, Q113K
B23: T031200263 (VHH)
VHH: B18 VHH with R19K, R45K, R72K, Q113K
B24: A016600058 (VHH)
VHH: B18 VHH with K74N, K87R
B25: T031200257 (VHH)
VHH: B18 VHH with R19K
B26: T031200261 (VHH)
VHH: B18 VHH with R19K, R72K, Q113K
B27: A044301298 (VHH)
VHH: EVQLVESGGGVVQPGGSLRLSCAASGFTFEDYAIGWFRQAPGREREEVSCIRTYDEQTYYADSVRGRFTISRDNARNTVSLQMNSLRPEDTALYYCAAGSYYACAYYSRPDPSEGHVDLDYWGQGTLVTVSS
B28: A044301152 (VHH)
VHH: B27 VHH with R43K, R65K, R76K

For the first experiment, the target named is T1, recombinant human CEACAM5 (human, UniProt P06731 35-685, limits assumed).
T1 construct: Immobilised by amine coupling on a CM5 chip
T1 sequence (looked up): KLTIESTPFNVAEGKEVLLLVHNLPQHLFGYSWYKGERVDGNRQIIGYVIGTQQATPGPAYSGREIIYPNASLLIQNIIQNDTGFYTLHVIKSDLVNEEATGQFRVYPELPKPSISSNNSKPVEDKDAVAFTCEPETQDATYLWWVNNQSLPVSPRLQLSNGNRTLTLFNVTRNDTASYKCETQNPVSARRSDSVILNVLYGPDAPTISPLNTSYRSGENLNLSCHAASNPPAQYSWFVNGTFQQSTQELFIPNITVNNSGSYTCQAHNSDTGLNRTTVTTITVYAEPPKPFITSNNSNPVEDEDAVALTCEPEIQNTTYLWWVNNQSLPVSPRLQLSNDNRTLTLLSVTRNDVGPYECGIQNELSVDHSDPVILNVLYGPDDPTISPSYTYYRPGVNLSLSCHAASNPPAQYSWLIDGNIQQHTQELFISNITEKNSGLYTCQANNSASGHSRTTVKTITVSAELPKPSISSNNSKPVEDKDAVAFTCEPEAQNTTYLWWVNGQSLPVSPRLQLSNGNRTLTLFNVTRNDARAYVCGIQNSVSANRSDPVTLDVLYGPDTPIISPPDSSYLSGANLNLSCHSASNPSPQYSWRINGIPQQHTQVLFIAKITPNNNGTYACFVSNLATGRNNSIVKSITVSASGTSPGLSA
The experiment in a line: SPR on CEACAM5 (Example 2; method not restated, as Example 1).
Consider B1, for which the Kd amounted to 1.01 nM, the koff came to 0.000526 s⁻¹ and the kon is 522000 M⁻¹ s⁻¹.

Regarding B2, the Kd was 0.914 nM, the koff stood at 0.000536 s⁻¹ and the kon came to 586000 M⁻¹ s⁻¹.

In the case of B3, the dissociation constant Kd came to 0.943 nM, the koff was 0.000516 s⁻¹ and the kon amounted to 547000 M⁻¹ s⁻¹.

Turning to B4, the Kd stood at 0.874 nM, the koff was 0.000504 s⁻¹ and the kon is 577000 M⁻¹ s⁻¹.

Take B5: the Kd came to 0.915 nM, the koff came to 0.000451 s⁻¹ and the kon stood at 493000 M⁻¹ s⁻¹.

As for B6, the Kd was 1.43 nM, the koff turned out to be 0.000633 s⁻¹ and the kon amounted to 441000 M⁻¹ s⁻¹.

As for B7, the Kd was determined as 0.952 nM, the koff was 0.000526 s⁻¹ and the kon was 553000 M⁻¹ s⁻¹.

Another experiment deals with T1, recombinant human CEACAM5. The experiment in a line: SPR on CEACAM5 (Example 2; same values as in Table 13).
Take B8: the Kd worked out at 1.24 nM, the koff was 0.000885 s⁻¹ and the kon is 716000 M⁻¹ s⁻¹.

A further experiment deals with T2, human serum albumin (human, UniProt P02768 25-609).
T2 construct: Immobilised by amine coupling on a C1 chip; also called HSA
T2 sequence (P02768 25-609 limits assumed): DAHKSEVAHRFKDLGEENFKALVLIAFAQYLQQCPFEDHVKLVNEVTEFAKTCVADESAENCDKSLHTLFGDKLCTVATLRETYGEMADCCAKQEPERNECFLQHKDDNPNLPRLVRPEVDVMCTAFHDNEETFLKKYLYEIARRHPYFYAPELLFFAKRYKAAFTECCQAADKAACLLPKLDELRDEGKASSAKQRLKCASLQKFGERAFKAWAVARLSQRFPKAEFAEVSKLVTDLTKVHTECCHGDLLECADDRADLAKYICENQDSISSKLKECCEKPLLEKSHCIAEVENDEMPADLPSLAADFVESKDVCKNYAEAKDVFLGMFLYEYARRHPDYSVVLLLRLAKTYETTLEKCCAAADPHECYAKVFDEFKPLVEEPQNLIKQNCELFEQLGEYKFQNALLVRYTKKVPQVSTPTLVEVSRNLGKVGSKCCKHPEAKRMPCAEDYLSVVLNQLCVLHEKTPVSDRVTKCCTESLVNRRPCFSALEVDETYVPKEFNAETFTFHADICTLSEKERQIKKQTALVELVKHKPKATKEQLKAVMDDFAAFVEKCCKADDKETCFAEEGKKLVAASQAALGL
Put plainly: SPR on HSA (Example 2; method not restated, as Example 1).
Take B9: binding was characterised by a dissociation constant (Kd) of 5.95 nM, the koff was 0.00224 s⁻¹ and the kon was determined as 377000 M⁻¹ s⁻¹.

The molecule B10 showed a dissociation constant (Kd) of 6.42 nM, a koff of 0.00226 s⁻¹ and a kon of 353000 M⁻¹ s⁻¹.

The molecule B11 displayed a Kd of 89.6 nM, a koff of 0.0178 s⁻¹ and a kon of 198000 M⁻¹ s⁻¹.

B12 yielded a Kd of 6.22 nM, a koff of 0.00231 s⁻¹ and a kon of 371000 M⁻¹ s⁻¹.

B13: binding was characterised by a dissociation constant (Kd) of 8.59 nM, the koff was 0.00263 s⁻¹ and the kon came to 306000 M⁻¹ s⁻¹.

Take B14: binding was characterised by a dissociation constant (Kd) of 8.01 nM, the off-rate constant (koff) was 0.00232 s⁻¹ and the kon was found to be 289000 M⁻¹ s⁻¹.

Turning to B15, the Kd is 7.51 nM, the koff came to 0.00226 s⁻¹ and the kon was found to be 301000 M⁻¹ s⁻¹.

B16 gave a Kd of 6.42 nM, a koff of 0.00229 s⁻¹ and a kon of 357000 M⁻¹ s⁻¹.

Another experiment deals with T2, human serum albumin. The experiment in a line: SPR on HSA (Example 2; same values as in Table 13).
B17 had a Kd of 1.28 nM, a koff of 0.000992 s⁻¹ and a kon of 772000 M⁻¹ s⁻¹.

Another experiment concerns the target T2, human serum albumin. The experiment in a line: SPR Biacore 8K+, HSA amine-coupled on C1 chip, ISVD analyte, 1:1 fit. For orientation: SPR reads the build-up and loss of mass on a sensor chip optically.
With B17, binding was put at a Kd of 1.28 nM, the koff was 0.000992 s⁻¹ and the on-rate (kon) was 772000 M⁻¹ s⁻¹.

The target of another experiment is soluble human TNFα (human, UniProt P01375 77-233). Put plainly: cell-based or functional assay.
Chain of soluble human TNFα (P01375 77-233 limits assumed): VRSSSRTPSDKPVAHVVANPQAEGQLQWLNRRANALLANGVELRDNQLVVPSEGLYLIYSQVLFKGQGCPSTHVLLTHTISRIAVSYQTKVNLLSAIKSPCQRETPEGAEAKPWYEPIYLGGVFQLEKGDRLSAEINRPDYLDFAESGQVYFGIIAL
Regarding B18, the “IC50, inhibition of human TNFα-induced NFkB activation (HEK293_NFkB-NLucP Nano luciferase reporter)” value (“IC50, inhibition” for short) was 4.3e-11 M (inferred; column head prints 'Average of ka (1/Ms)').

In the case of B19, the “IC50, inhibition” value is 5.34e-11 M (inferred; column head prints 'Average of ka (1/Ms)').

In the case of B20, the “IC50, inhibition” value is 6.09e-11 M (inferred; column head prints 'Average of ka (1/Ms)').

Turning to B21, the “IC50, inhibition” value was 6.43e-11 M (inferred; column head prints 'Average of ka (1/Ms)').

Regarding B22, the “IC50, inhibition” value is 4.82e-11 M (inferred; column head prints 'Average of ka (1/Ms)').

On to B23, for which the “IC50, inhibition” value was 1.92e-10 M (inferred; column head prints 'Average of ka (1/Ms)').

B24: the “IC50, inhibition” value is 3.86e-11 M (inferred; column head prints 'Average of ka (1/Ms)') and 2.97e-11 M (inferred; column head prints 'Average of ka (1/Ms)').

For B25, the “IC50, inhibition” value was 4.93e-11 M (inferred; column head prints 'Average of ka (1/Ms)').

Regarding B26, the “IC50, inhibition” value is 1.91e-10 M (inferred; column head prints 'Average of ka (1/Ms)').

The target in another experiment is CD8. The experiment in a line: kinetics, method not stated in Example 3.
Molecule B27 came in with a Kd of 0.113 nM, a koff of 0.000418 s⁻¹ and a kon of 3.69e+06 M⁻¹ s⁻¹.

B28: the Kd came to 0.122 nM, the koff turned out to be 0.000412 s⁻¹ and the kon amounted to 3.37e+06 M⁻¹ s⁻¹.

Another experiment concerns the target T1, recombinant human CEACAM5. The experiment in a line: SPR Biacore 8K+, CEACAM5 amine-coupled on CM5, ISVD analyte, 1:1 fit.
With B8, the Kd was found to be 1.24 nM, the koff was 0.000885 s⁻¹ and the kon came out at 716000 M⁻¹ s⁻¹.
